The supplement of paper PMC10065799, “High-throughput profiling of sequence recognition by tyrosine kinases and SH2 domains using bacterial peptide display” (eLife, 2023)

Tested on: AncSZ
Test: phosphorylation enrichment, bacterial display (enrichment ratio); higher = better substrate or ligand; peptides without Tyr show the background
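Also: 11-residue human phosphosite peptides and single-mutation variants displayed on the E. coli surface, counted by deep sequencing, each peptide's frequency after selection divided by its frequency in the unselected input library; frequency after pTyr selection over input frequency; kinase dosed for 20-30% of maximal phosphorylation in three min.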

Sequence | phosphorylation enrichment
AEFGLYGAMVW [VSX2_Y222_R227W_YF] | 1.26
ILILKYPIEHG [ACTA1_Y71_T68I] | 1.07
VTGWGYRKLRE [F11_Y521_D526E] | 0.907
FCRHNYGAVES [HLA-DRB1_Y112_V114A_YF] | 0.628
SLDLSYFTTSS [EMD_Y181_P183T_YF] | 0.876
DEFLEYRRIVG [FAM221A_Y20_YF] | 0.83
SSNLFYRWLTA [CNGA3_Y169_YF] | 1.09
SSENPYATIKD [MEGF10_Y1030] | 0.87
GVIKEYQIRQV [USH2A_Y3623] | 0.627
MLEAPYVDRNS [F10_Y384_V382A] | 0.747
PKGTGYIKTEL [STAT1_Y701] | 0.973
TIQRMYGCDVG [HLA-A_Y123_I121R] | 0.761
SFCFRYRCAPR [SUMF1_Y344_A348P_YF] | 0.883
ISRVLYPNDNF [PYGM_Y281] | 0.649
CDLTDYLMKIL [ACTA1_Y190_R185C] | 1.39
MSPPGYKLVTG [GJA1_Y286] | 0.541
FMYKVYSDPQP [FGFR1_Y280_C277Y] | 1.03

Sequence | phosphorylation enrichment
LYEDCYLLGTS [ASS1_Y87_R86C] | 2.29
YDCKWYIPLTD [BCR_Y756] | 1.47
EKMWTYMRSAE [GRIA4_Y695] | 1.04
TMKSRYMELFD [BBS2_Y644_YF] | 0.765
TESNNYIFKTL [FAM83B_Y637_YF] | 1.26
TDVSLYPSGGT [TENM4_Y399] | 0.676
RLEGVYGNNID [PTEN_Y46_R47G] | 0.404
YDGGCYEQLFV [MC4R_Y41_S36Y] | 2.51
KLQQWYREHRS [GPI_Y17] | 0.6
APVEDYGGGGG [B4GALT6_Y382_I379V] | 0.822
SRIWVYNHYRW [BRCA2_Y2621] | 1.05
RWGQKHMTAVV [CYBA_Y72_Y72H] | 1.13
CGTPTCLAPEV [CHEK2_Y390_Y390C] | 1.18
SVIVPYEPPEV [TP53_Y220_V217I] | 1.1
SHNKYYMLVAR [MFSD8_Y134] | 0.825
FLTLHYDAKPQ [ANG_Y38_Q36L] | 0.912

Biological target: EPHB1 (UniProt P54762)
Test: as above

Chain of EPHB1 (P54762 whole entry, looked up): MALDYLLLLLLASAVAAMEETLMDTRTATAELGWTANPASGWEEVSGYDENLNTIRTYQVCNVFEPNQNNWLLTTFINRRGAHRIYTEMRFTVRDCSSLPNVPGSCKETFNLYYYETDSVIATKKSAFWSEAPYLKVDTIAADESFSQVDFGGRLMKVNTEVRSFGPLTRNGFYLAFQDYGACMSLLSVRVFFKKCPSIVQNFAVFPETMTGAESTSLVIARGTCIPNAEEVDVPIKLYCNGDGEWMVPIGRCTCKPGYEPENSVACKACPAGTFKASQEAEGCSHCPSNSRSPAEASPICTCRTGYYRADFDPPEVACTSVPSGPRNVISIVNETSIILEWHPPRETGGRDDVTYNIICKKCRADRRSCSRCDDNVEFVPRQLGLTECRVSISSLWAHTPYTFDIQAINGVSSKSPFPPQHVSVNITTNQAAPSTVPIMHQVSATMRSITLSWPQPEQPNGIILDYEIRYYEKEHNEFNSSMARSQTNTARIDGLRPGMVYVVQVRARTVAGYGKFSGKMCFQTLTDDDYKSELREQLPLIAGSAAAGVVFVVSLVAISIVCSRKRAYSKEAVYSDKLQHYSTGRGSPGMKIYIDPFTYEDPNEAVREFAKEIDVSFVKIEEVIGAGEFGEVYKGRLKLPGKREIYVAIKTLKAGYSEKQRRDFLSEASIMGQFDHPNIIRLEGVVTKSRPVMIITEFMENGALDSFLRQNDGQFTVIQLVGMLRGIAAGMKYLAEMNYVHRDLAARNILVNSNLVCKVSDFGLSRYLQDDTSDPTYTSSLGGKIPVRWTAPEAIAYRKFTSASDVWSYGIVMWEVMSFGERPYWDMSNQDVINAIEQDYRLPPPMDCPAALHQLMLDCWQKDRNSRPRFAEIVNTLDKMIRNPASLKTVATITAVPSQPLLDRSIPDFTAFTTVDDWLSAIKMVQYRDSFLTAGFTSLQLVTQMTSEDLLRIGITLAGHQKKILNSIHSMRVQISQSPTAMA

Sequence | phosphorylation enrichment
AEFGLYGAMVW [VSX2_Y222_R227W_YF] | 0.729
ILILKYPIEHG [ACTA1_Y71_T68I] | 0.612
VTGWGYRKLRE [F11_Y521_D526E] | 0.415
FCRHNYGAVES [HLA-DRB1_Y112_V114A_YF] | 0.674
SLDLSYFTTSS [EMD_Y181_P183T_YF] | 0.468
DEFLEYRRIVG [FAM221A_Y20_YF] | 0.469
SSNLFYRWLTA [CNGA3_Y169_YF] | 0.594
SSENPYATIKD [MEGF10_Y1030] | 0.458
GVIKEYQIRQV [USH2A_Y3623] | 0.376
MLEAPYVDRNS [F10_Y384_V382A] | 0.452
PKGTGYIKTEL [STAT1_Y701] | 0.411
TIQRMYGCDVG [HLA-A_Y123_I121R] | 0.504
SFCFRYRCAPR [SUMF1_Y344_A348P_YF] | 0.527
ISRVLYPNDNF [PYGM_Y281] | 0.438
CDLTDYLMKIL [ACTA1_Y190_R185C] | 0.791
MSPPGYKLVTG [GJA1_Y286] | 0.667
FMYKVYSDPQP [FGFR1_Y280_C277Y] | 0.778

Sequence | phosphorylation enrichment
LYEDCYLLGTS [ASS1_Y87_R86C] | 7.04
YDCKWYIPLTD [BCR_Y756] | 0.689
EKMWTYMRSAE [GRIA4_Y695] | 0.573
TMKSRYMELFD [BBS2_Y644_YF] | 0.523
TESNNYIFKTL [FAM83B_Y637_YF] | 0.604
TDVSLYPSGGT [TENM4_Y399] | 0.331
RLEGVYGNNID [PTEN_Y46_R47G] | 0.452
YDGGCYEQLFV [MC4R_Y41_S36Y] | 1.24
KLQQWYREHRS [GPI_Y17] | 0.37
APVEDYGGGGG [B4GALT6_Y382_I379V] | 0.503
SRIWVYNHYRW [BRCA2_Y2621] | 0.671
RWGQKHMTAVV [CYBA_Y72_Y72H] | 0.516
CGTPTCLAPEV [CHEK2_Y390_Y390C] | 0.545
SVIVPYEPPEV [TP53_Y220_V217I] | 0.622
SHNKYYMLVAR [MFSD8_Y134] | 0.943
FLTLHYDAKPQ [ANG_Y38_Q36L] | 0.505

Biological target: EPHB2 (UniProt P29323)
Test: as above

Chain of EPHB2 (P29323 whole entry, looked up): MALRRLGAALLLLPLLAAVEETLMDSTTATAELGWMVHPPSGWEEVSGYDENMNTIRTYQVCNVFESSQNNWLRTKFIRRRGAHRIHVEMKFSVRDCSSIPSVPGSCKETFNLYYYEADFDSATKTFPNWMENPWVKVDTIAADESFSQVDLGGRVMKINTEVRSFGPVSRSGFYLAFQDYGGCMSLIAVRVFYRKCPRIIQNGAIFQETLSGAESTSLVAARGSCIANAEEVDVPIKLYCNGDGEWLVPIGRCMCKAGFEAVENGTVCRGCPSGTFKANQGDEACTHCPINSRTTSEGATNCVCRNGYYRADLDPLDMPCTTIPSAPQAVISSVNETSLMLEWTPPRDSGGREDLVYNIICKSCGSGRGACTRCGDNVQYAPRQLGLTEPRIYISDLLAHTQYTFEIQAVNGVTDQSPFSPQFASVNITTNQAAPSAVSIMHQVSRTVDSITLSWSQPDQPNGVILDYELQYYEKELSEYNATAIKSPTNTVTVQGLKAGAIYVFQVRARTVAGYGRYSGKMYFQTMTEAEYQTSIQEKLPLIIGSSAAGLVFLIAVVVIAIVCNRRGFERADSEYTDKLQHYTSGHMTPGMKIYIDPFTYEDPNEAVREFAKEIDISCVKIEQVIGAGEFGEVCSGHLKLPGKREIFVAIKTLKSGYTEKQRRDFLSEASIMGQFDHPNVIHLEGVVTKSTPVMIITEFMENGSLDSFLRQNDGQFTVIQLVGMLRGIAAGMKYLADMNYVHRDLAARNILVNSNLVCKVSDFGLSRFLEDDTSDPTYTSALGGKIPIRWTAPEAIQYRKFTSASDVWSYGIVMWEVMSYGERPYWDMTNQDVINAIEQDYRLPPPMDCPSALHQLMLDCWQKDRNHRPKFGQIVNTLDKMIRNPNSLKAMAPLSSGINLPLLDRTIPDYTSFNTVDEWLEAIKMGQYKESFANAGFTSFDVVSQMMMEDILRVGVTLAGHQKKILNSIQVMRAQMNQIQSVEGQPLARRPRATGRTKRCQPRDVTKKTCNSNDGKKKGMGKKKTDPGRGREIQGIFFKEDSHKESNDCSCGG

Sequence | phosphorylation enrichment
AEFGLYGAMVW [VSX2_Y222_R227W_YF] | 1.15
ILILKYPIEHG [ACTA1_Y71_T68I] | 0.479
VTGWGYRKLRE [F11_Y521_D526E] | 0.455
FCRHNYGAVES [HLA-DRB1_Y112_V114A_YF] | 0.555
SLDLSYFTTSS [EMD_Y181_P183T_YF] | 0.475
DEFLEYRRIVG [FAM221A_Y20_YF] | 0.439
SSNLFYRWLTA [CNGA3_Y169_YF] | 0.526
SSENPYATIKD [MEGF10_Y1030] | 0.597
GVIKEYQIRQV [USH2A_Y3623] | 0.349
MLEAPYVDRNS [F10_Y384_V382A] | 0.451
PKGTGYIKTEL [STAT1_Y701] | 0.557
TIQRMYGCDVG [HLA-A_Y123_I121R] | 0.57
SFCFRYRCAPR [SUMF1_Y344_A348P_YF] | 0.549
ISRVLYPNDNF [PYGM_Y281] | 0.524
CDLTDYLMKIL [ACTA1_Y190_R185C] | 0.75
MSPPGYKLVTG [GJA1_Y286] | 0.381
FMYKVYSDPQP [FGFR1_Y280_C277Y] | 0.799

Sequence | phosphorylation enrichment
LYEDCYLLGTS [ASS1_Y87_R86C] | 3.42
YDCKWYIPLTD [BCR_Y756] | 0.711
EKMWTYMRSAE [GRIA4_Y695] | 0.62
TMKSRYMELFD [BBS2_Y644_YF] | 0.437
TESNNYIFKTL [FAM83B_Y637_YF] | 1.06
TDVSLYPSGGT [TENM4_Y399] | 0.512
RLEGVYGNNID [PTEN_Y46_R47G] | 0.311
YDGGCYEQLFV [MC4R_Y41_S36Y] | 0.968
KLQQWYREHRS [GPI_Y17] | 0.399
APVEDYGGGGG [B4GALT6_Y382_I379V] | 0.552
SRIWVYNHYRW [BRCA2_Y2621] | 0.466
RWGQKHMTAVV [CYBA_Y72_Y72H] | 0.559
CGTPTCLAPEV [CHEK2_Y390_Y390C] | 0.695
SVIVPYEPPEV [TP53_Y220_V217I] | 0.618
SHNKYYMLVAR [MFSD8_Y134] | 0.675
FLTLHYDAKPQ [ANG_Y38_Q36L] | 0.426

Biological target: FGFR1 (UniProt P11362)
Test: as above

Chain of FGFR1 (P11362 whole entry, looked up): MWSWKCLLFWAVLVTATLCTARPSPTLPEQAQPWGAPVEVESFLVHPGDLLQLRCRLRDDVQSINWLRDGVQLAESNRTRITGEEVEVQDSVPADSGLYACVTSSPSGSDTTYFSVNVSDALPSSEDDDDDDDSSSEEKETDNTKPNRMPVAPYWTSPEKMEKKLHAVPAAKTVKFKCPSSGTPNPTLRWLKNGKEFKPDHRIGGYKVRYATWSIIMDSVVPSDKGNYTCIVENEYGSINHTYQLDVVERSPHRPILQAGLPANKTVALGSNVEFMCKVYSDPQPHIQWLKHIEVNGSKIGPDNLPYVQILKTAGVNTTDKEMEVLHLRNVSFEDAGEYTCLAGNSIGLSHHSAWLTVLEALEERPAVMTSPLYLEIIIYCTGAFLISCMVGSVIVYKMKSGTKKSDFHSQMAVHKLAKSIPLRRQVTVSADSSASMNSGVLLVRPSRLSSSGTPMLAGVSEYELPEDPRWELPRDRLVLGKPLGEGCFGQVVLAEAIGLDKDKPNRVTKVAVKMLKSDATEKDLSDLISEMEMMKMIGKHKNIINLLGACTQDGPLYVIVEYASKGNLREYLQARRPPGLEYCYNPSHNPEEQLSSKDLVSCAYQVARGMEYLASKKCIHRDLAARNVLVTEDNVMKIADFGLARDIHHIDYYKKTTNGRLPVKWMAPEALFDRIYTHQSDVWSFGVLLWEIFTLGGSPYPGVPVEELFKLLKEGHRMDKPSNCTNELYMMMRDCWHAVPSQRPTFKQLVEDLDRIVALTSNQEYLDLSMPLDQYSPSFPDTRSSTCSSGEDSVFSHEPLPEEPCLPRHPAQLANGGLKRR

Sequence | phosphorylation enrichment
AEFGLYGAMVW [VSX2_Y222_R227W_YF] | 0.645
ILILKYPIEHG [ACTA1_Y71_T68I] | 0.525
VTGWGYRKLRE [F11_Y521_D526E] | 0.476
FCRHNYGAVES [HLA-DRB1_Y112_V114A_YF] | 0.471
SLDLSYFTTSS [EMD_Y181_P183T_YF] | 0.499
DEFLEYRRIVG [FAM221A_Y20_YF] | 0.466
SSNLFYRWLTA [CNGA3_Y169_YF] | 0.621
SSENPYATIKD [MEGF10_Y1030] | 0.496
GVIKEYQIRQV [USH2A_Y3623] | 0.454
MLEAPYVDRNS [F10_Y384_V382A] | 0.455
PKGTGYIKTEL [STAT1_Y701] | 0.792
TIQRMYGCDVG [HLA-A_Y123_I121R] | 0.56
SFCFRYRCAPR [SUMF1_Y344_A348P_YF] | 0.509
ISRVLYPNDNF [PYGM_Y281] | 0.448
CDLTDYLMKIL [ACTA1_Y190_R185C] | 0.476
MSPPGYKLVTG [GJA1_Y286] | 0.476
FMYKVYSDPQP [FGFR1_Y280_C277Y] | 0.461

Sequence | phosphorylation enrichment
LYEDCYLLGTS [ASS1_Y87_R86C] | 1.26
YDCKWYIPLTD [BCR_Y756] | 0.839
EKMWTYMRSAE [GRIA4_Y695] | 0.409
TMKSRYMELFD [BBS2_Y644_YF] | 0.482
TESNNYIFKTL [FAM83B_Y637_YF] | 0.645
TDVSLYPSGGT [TENM4_Y399] | 0.355
RLEGVYGNNID [PTEN_Y46_R47G] | 0.485
YDGGCYEQLFV [MC4R_Y41_S36Y] | 1.18
KLQQWYREHRS [GPI_Y17] | 0.434
APVEDYGGGGG [B4GALT6_Y382_I379V] | 0.473
SRIWVYNHYRW [BRCA2_Y2621] | 0.574
RWGQKHMTAVV [CYBA_Y72_Y72H] | 0.483
CGTPTCLAPEV [CHEK2_Y390_Y390C] | 0.566
SVIVPYEPPEV [TP53_Y220_V217I] | 0.6
SHNKYYMLVAR [MFSD8_Y134] | 5.4
FLTLHYDAKPQ [ANG_Y38_Q36L] | 0.532
